Assay results taken from the RNAGym collection of RNA variant scans (doi:10.1073/pnas.2313332121).
Fewer inactive variants are shown than the library holds.

B1: TPR 5TU (parent)
chain: GGAUCUUCUCGAUCUAACAAAAAAGACAAAUCUGCCACAAAGCUUGAGAGCAUCUUCGGAUGCAGAGGCGGCAGCCUUCGGUGGCGCGAUAGCGCCAACGUUCUCAACUAUGACACGCAAAACGCGUGCUCCGUUGAAUGGAGUUUAUCAUG

Variants of: B1
Experiment: polymerase ribozyme fitness, log enrichment relative to wild type (log ratio); higher = more active; in vitro selection for triplet polymerase activity
Summary of the method: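 Input and output libraries were sequenced on Illumina after a single in vitro selection round, run in triplicate on PCR-built, transcribed mutant libraries of each subunit of a heterodimeric triplet polymerase ribozyme. Selection annealed libraries to a biotinylated primer, the partner subunit and triplets, incubated them frozen at −7 °C, then gel-excised extended constructs for streptavidin-bead capture and RT-PCR. Genotypes with ≥10 input reads and ≥1 read per output were kept. Fitness is the logarithm, taken in base 2, of genotype enrichment divided by wild-type enrichment, using inverse-variance-weighted replicate averages.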

Going from GGAUCUUCUCGAUCUAACAAAAAAGACAAAUCUGCCACAAAGCUUGAGAGCAUCUUCGGAUGCAGAGGCGGCAGUCUUCGGUGGCGCGAUAGCGCCAACGUUCUCAACUAUGACACGCAAAACGCGUGCUCCGUUGAAUGGAGUCGAUCAUG to GGAUCUUCUCGAUCUAACAAAAAAGACAAAUCUGCCACAAAGUUUGAGAUCAUCUUCGGAUGCAGAGGCGGCAGCCUUCGGUGGCGCGAUAGCGCCAACGUUCUCAACAAUGACACGCAAAACGCGUGCUCCGUUGAAUGGAGUUUAUCUUG, the “polymerase ribozyme fitness (log ratio)” value falls from -0.419 to ≤ -4.2.

First: GGAUCUUCUCGAUCUAACAAAAAAGACAAAUCUGCCACAAAGCUUGACAGCAUCUUAGGAUGCAGAGGCGGCAGGCUUCGGUUGCGCGAUAGCGCCAACGUUCUCGGCUAUGUCACGCAAAACGCGUGCUCCGUUGAAUGGAGUUUAUCAUG
Second: GGAUCUUCUCGAUCUAACAAAAAAGACAAAUCUGCCACAAAGCUUGAGAGGAUCUUCGGAUGCAGAGGCGGCAGCCUUCGGUGGCGCGAUAGCGCCAACGUUCUCAACUAUGACACGCAAAACGUGUGCUCCGUUGAAUGGAGCUUAUCAUG
The “polymerase ribozyme fitness (log ratio)” value of the first is lower: ≤ -4.2 for the first, -4.07 for the second.

GGAUCUUCUCGAUCUAACAAAAAAGACAAAUCUGCCACAAAGCUUGAGAGCAUCUUCGGAUGCAGAGGCGGCAGCCUUAGGUGGCGCGAUAGCGCCAACGUUCUCAACUAUGACACGCAAAACGCGUGCUCCGUUGAACGGGGUUUAACAUG and GGAUCUUCUCGAUCUAACAAAAAAGACAAAUCUGCCACAAACCUUGCGAGCAACUUCGGAUGCAGAGGCGGCAGCCUUCGGCGACGCGAUAGCGCCAACGUUCUCAACUAUGACACGCAAAGCGCGUGCUCCGUUGAUUGGACUUUAUCAUG cannot be ordered by “polymerase ribozyme fitness (log ratio)” value: ≤ -4.2 for the first, ≤ -4.2 for the second.

First: GGAUCUUCUCGAUCUAACAAAAAAGACAAAUCUGCCGCAAAGCUUGAGAGCAUCUUCGGAUGCAGAGGCGGCAGCCUUCGGUGGCGCGAUAGUGCCAACGUUCUCAACUAUGACACGCAAAACGCGUGCUCCGUUGAAUGGAGUUUAUCAUG
Second: GGAUCUUCUCGAUCUAACAAAAAAGACAAAUCUGCCACUAAGCUUGAGAGCAUCUUCGGAUGCAGAGGUGGCAGUCUUCGGUGUCGCGAUAGCGCCAACGUUCUCAACUAUGACACGCAAAACGCGGGCUCCGUUGAAUGGAGUUUAUCAUG
The “polymerase ribozyme fitness (log ratio)” value of the first is higher: -3.38 for the first, ≤ -4.2 for the second.

Compared with GGAUCUUCUCGAUCUAACACAAAAGACAAAUCUGCCACAAAGCUUGAGAGCAUCUUCGGAUGCAGAGGCGGCAGCUUUCGGUGGUGCGAUAGCGUUAACGUUCUCAACUAUGACACGCAAAACGCGUGCUCCGUUGAAUGGAGUUUAUCAUG, GGAUCUUCUCGAUCUAACAAAAAAGACAAAUCUGCCACAAAGCUUGAGAGCAUCAUCGGAUGCAGAGGCGGCAGCCUUCGGUGGCGCGAUGGCGCCAACGUUCUCAACUAUGACACGCAAAACGCGUGCUCCGAUGAAUGGAGUUUAUCAUG is lower in “polymerase ribozyme fitness (log ratio)” value: -3.03 for the first, -4.01 for the second.

GGAUCUUCUCGAUCUAACAAAAAAGACAAAUCUGCCACAAAACUUGAGAGCAUCUUCGGAAGCAGAGGCGGCAGCCUUCGGUGGCACGAUAGCGCCAACGUUCUCAACUAUGACACGCAAAACGCGUGCUCCGUUCAAUGGAGUUUAUCAUG and GGGUCUUCUCGCUCUAACAAAAAAGACAAAUCUGCCACGAAGCUUGAGAGCAUCUUCGGAUGCAGAGGCGGCAGCCUUCGGUGGCGCGAUAGCGCCUACGUUCUCAACUAUGACACGCAAAACGCGUGCUCCAUUGAAUGGACUUUAUCAUG cannot be ordered by “polymerase ribozyme fitness (log ratio)” value: ≤ -4.2 for the first, ≤ -4.2 for the second.

GGAUCUUCUCGAUCUGACAAAAAAGACGAAUCUGCCACAAAGCUUGAGAGCAUCUUCGAAUGCAGAGGCGGCAGCCUUCAGUCGCGUGAUAGCGCCAACGUUCUCAACUAUGACACGCAAAACGCGUGCUCCGUUGAAUGGAGUUUAUCAUG and GGAUCUUCUCGAUCUAACAAAAAAGACAAAUCUGCCACAAACCUUGAGGGCAUGUUCGGAUGCAGAGGCGGCAGCCUUCGGUCGUGCGAUAGCGCAAACGUUCUCAACUAUGACACGCAAAACGCGUGCUCCGUUGAAUGGAGUUUAUCAUG cannot be ordered by “polymerase ribozyme fitness (log ratio)” value: ≤ -4.2 for the first, ≤ -4.2 for the second.

Compared with GGAUCUUCUCGAUCUAACAAAAAAGACAAAUCUGCCACAAAGCUUGAGAGCAUCUUCGGAUGCAGAGGCGGCAGCCUUCGGUAGCGCGAUAGCGCCAAUGUUCUCAACUAUGACACGCAAAACGCGUGCUCCGUUGAAUGGAAUUUUUCAUG, GGAUCUUCUCGAUCUAAUAAAAAAGACAAAUCUGCCAGAGAGCUUGAGAGCAUCUUCGGAAGCAGAGGCGGCAGCCUUCGCUGGCGCGAUAGCGCAAACGUUCUCAACUAUGACACGCAAAACGCGUGCUCCGUUGAAUGGAGUUCAUCAUG is lower in “polymerase ribozyme fitness (log ratio)” value: -3.6 for the first, ≤ -4.2 for the second.

Going from GGAUCUUCUCGAUCUAACAAAAAAGACAAAUCUGCCACAAAGCUUGAAAGCAUCUUCGGAUGCAGAGGCGGCAGCCUUCGGUGGCGCGAUAUCGCCAACGUUCUCAACUAUGACACGCAAAAAGCGUGCUCCGUUGAAUGGAGUUUAUCAUG to GGAUCUUCUCGAUCUAACAACAAAGACAAAUCUGCCACAAAGCUUGAGAGCAACUACGGAUGCAGAGGUGGCAGCCUUCGGUGGCGCGAUAGCGCCAUCGUUCUCAACUAUGACACCGAAAACGCGUGCUCCGAUGAAUGGAGUUUAUCAUG, the “polymerase ribozyme fitness (log ratio)” value falls from -0.538 to ≤ -4.2.

Going from GGAUCUUCUCGAUCUAACUAAAAAGACAAAUCCGCCACAAAGCUUGAGAGCAUCUUCGGAUGCAGAGGUGGCAGCCUUCGGUGGCGCGAUAGCGCCAACGUUCUCAACUAUGACACGCAAAACGCUUGCUCCGUUGAAUGGAGUUUAUCAUG to GGAUCUUCUCGAGCUAACAAAAAAGACAAAUCUGCCACAAAGCUUGAGAGCAUCUACGGAUGCAGAGGCGGCAGCCUUCGGUGGCUCGAUAGCGCCAACGUUCUCAACUAUGACACGCAAAACGCGUGCUUCGUUGAAUGGAGUUUAUCAUG, the “polymerase ribozyme fitness (log ratio)” value falls from -0.898 to -4.16.

Going from GGAUCUUCUCGAUCUAACAAAAAAGACAAAUCUGCCACAAAGCUUGAGAGCAUGUUCGGAUGCAGAGGCGGCAGCCUUCGGUGGCGCGAUAGCGCCAACGUUCUCAACUAUGACACGCAAAACGCGUGCUCCGUUGAAUGGUGUUUAUCAUG to GGAUCUUCUCGAUCUAACAAAAGAGACAAGUCUGCCACAAAGCUUGAGAGCUUCUUCGGAUGCAGAGGCGGCAGCCUUCGGUGGCGCGAUAGCGCCAACGUUCUCAACUAUGACAUGCAAAACGCGUGCUCUGUUGAAUGGAGUUUAUCAUG, the “polymerase ribozyme fitness (log ratio)” value falls from -1.98 to ≤ -4.2.

Compared with GGAUCUUCUCGAUCUAACAAAAAAGACGAAUCUGCCACAAAGCUUGAGACCAUCUUCGGAUGCAGAGGCGGCAGCCUUCGGUGGCGCGAUAGCGCCAACGUUCUCAACUAUGACACGCAAAGCGCGUGCUCCGUUGAAUGGAGUCUAACAUG, GGAUCUUCUCGAUCUAACAAAAAAGACAAAUCUGCCACAAAGCUUGAGAGCAUCUUCGGAUGCAGAGGCGGCAGCCUUCGGUGACGCGAUAGCGCCUACGUUCUCAACUAUGACACGCAAAACGCGUGCUCCGUUGAAUGGAGUUUAUCAUG is higher in “polymerase ribozyme fitness (log ratio)” value: ≤ -4.2 for the first, -1.12 for the second.

Compared with GGAACUUCUUGAUCUAGCAACAAAGACAAAUCUGCCACAAAGUUUGAGAGCAUCUUCGGAUGCAGAGGCGGCAGCCUUCGGUGGCGCGAUAACGCCAACGUUCUAAACUAUGACACGCAAAACCCGUGCUCCGUUGAAUGGAGUUUAUCAUG, GGAUCUUCUCGAGCUAACAAAAAAGACAAAUCUGCCACAAAGCUUGAGAGCAUCUUAGGAUGCAGAGGCGGCAGCCUUCGGUGGCGCGAUAGCGCCAACGUUCUCAACUAUGACACGCAAAACGCGUGCUCCGUUGAAUGGAGUUUAUCAUG is higher in “polymerase ribozyme fitness (log ratio)” value: ≤ -4.2 for the first, -0.243 for the second.

Compared with GGAUCUUCUCGAUCUAACAAAAAAGACAAAUCUGCCACAAAGCUUAAGAGCAUCUUCGGAGGCAGAGGCGGCAGCCUUCGGUGGCGCGAUAGCGCCAACGUUAUCAACUAUGACACGGAAAACGCGUGCUCCGUUGAAUGGAGUUUAUCAUG, GGAUCUUCUCGAUCUAACAAAAAAGACAAAUCUGCCACAAAGCUUGAGAGCAUCUGCGGGUGCAGAGGCGGCAGCCUUCGGUGGCGCGAUAGCGCCAAUGUACUCAACUAUGACACGCAAAACGCGUGCUCCGUUGAAUGGAGUUUAUCAUG is higher in “polymerase ribozyme fitness (log ratio)” value: ≤ -4.2 for the first, -2.07 for the second.

First: GGAUCUUCUCGAUCUAACCAAAAAGACAAAUCUGCCACAAAGCUUGAGAGCAUCUUCGGAUGCAGAGGCGGCAGCCUUCGGUGGCGCGAUAGGGCCAACGUUCUCAACUAUGACACGCAAAACGCGUGCUCCGUUGAAUGGAGUUUAUCAUG
Second: GGAUCUUCUCGAUCUAACAAAAAAGACAAAUCUGCCACAAAGCUUGAGAGCAUCUUCGGAUGCAGAGGCGGCAGCCUUCGGUUGCGCUAUAGCGCCAACGUUCUCAACUAUGACACGCAAAACGCGUGCUCCGUUGAAUGGAGUUUAUCUUG
The “polymerase ribozyme fitness (log ratio)” value of the first is higher: -2.84 for the first, -3.49 for the second.

First: GGAUCUUCUCGAUCUAACAAAAAAGACAAAUCUGCCACAAAGCUUGAGAGCAUCUACGGAUGCAGAGGCGGCAGCCUUCGGUGGCGCGAUAGCGCCAACGUUCUCAACUAUGACACGCAAAACGCGUGCUCCGUUGAAUGGAGUUUAUCAUA
Second: GGAUCUUCUCGAUCUAACAAAAAAGACAAAUCUGCCACAAAGCUUAAGAGCAUCUUCGGAUGCAGAAGCGGCAGCCUUCGGUGUCGCGAUAGCGCCGAUGUUCUCAACUAUGACAUGCAAAACGCGUGCUCCGUUGAAUGGAGUUUAUCAUG
The “polymerase ribozyme fitness (log ratio)” value of the first is higher: -2.52 for the first, ≤ -4.2 for the second.

Compared with GGAUCUUCUCGAUCUAACAAAAAAGACAAAUCUGCCACAAAGCUUGAGAACAUUUUCGGAUGCAGAGGCGGCAGCCUUCGGUGGCGCGAUUGUGCCAACGUUCUCACAUAUGACACGCAAAACGCGUGCUCGGUUGAUUGGAGUUUAGCAUG, GGAUCUUCUCGAUCUAACAAAAAAGACAAAUCUGCCACAAAGCUUGAGAGCUACUUAGGAUGCAGAGGCGGCAGCCUUCGGUGGCACGAUAGCGCCAACGUUCUCAACUAUGACACGCAAAACGCGUGCUCCGUUGAAUGGAGUUUAUCAUG is higher in “polymerase ribozyme fitness (log ratio)” value: ≤ -4.2 for the first, -1.31 for the second.

Going from GGAUCUUCUCGAUCUAACAAAAAAGACAAAUCUGCCACAAAGCUAGCGAGCAUCUUCGGAUGCAGAGGCGGCAGCCUUCGGUGGCGCGAUAGCGCCAACGUUCUCAACUAUGACACGCAAAACGCGUGCUCCGUUGAAUGGAGUUUAUCAUG to GGAUCUUCUCGAUCUAACAAAAAAGACAAAUCUGCCACAAAGCUUGAGAGCACCUUCGGAUGCAGAGGCGGCAGCCUUCGGUGGCUCGAUAGCGCAAACGUUCUCAACUAUGACACGCAAAACGCGUGCUCCGUUGAAUGGAGUUAAUCAUG, the “polymerase ribozyme fitness (log ratio)” value rises from -3.93 to -2.73.

First: GGAUCUUCUCGAUCUAAUAAAAAAGACAAAUCUGCCACAAAGCUUGAGAGCAUCUUCGGAUGCAGAGGCGGCAGCCUUCGGUGGCGCGAUAGCGCCAACGUUCUCAACUAUGACACGCAAAACGCGUGCUCCGUUGAAUCGAGUUUAUCAUG
Second: GGAUCUUAUCGAUCUAACAAAAAAGACAAAUCUGCCACAAAGCUUGAGGGCAUCUUCGGAUGCAGAGGCGGCAACCUUCGGUGGCUCGAUAGCGCCAACGUUCUCAACUAUGACACGCAAAACGCGUGCUCCGUUGAAUGUAGUUUAGCAUG
The “polymerase ribozyme fitness (log ratio)” value of the first is higher: -4.17 for the first, ≤ -4.2 for the second.
